Laboratory results taken from the RNAGym collection of RNA variant scans (doi:10.1073/pnas.2313332121).

B1: TPR t1 (parent)
chain: GACCAAUCUGCCCUCAGAGCUCGAGAACAUCUUCGGAUGCAGAGGAGGCAGGCUUCGGUGGCGCGAUAGCGCCAACGUCCUCAACCUCCAAUGCAUCCCACCACAUGAUGAUGCCUGAAGAGCCUUGGUUUUUUG

Variants of: B1
Assay: polymerase ribozyme fitness, log enrichment relative to wild type (log ratio); higher = more active; in vitro selection for triplet polymerase activity
Summary of the method: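 Streptavidin-bead capture of gel-excised extended constructs, followed by RT-PCR, closed a single triplicate in vitro selection round. That round began by annealing PCR-built, transcribed mutant libraries of each subunit of a heterodimeric triplet polymerase ribozyme with a biotinylated primer, the partner subunit and triplets, then incubating them frozen at −7 °C. After Illumina sequencing of inputs and outputs, genotypes needed ≥10 input reads and ≥1 read per output. Fitness is the base-2 logarithm of genotype enrichment over wild-type enrichment, using inverse-variance-weighted replicate averages.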

In order of rising “polymerase ribozyme fitness (log ratio)” value:
1. C56U G61C C97U A103U C123G  -7.29
2. G57C G58A A83U C86A G117U C123U  -6.95
3. C56U G60A A68C C70U  -6.82
4. G57A A90C C104A G113C G117C  -6.59
5. G57A G58C G63A C89A  -6.16
6. G57C C64A C124U  -6.08
7. C56U C79A C99U C102A G120A G127U  -5.84
8. C56A U109A  -5.84
9. C56U U67A  -5.79
10. C56U G61U C104U U112G G117U C124U  -5.56
11. C56U G60A C101U  -5.48
12. C56G C97A  -5.24
13. G57U C72U U109A C114G  -5.21
14. C56G G107U  -5.02
15. C56G C72A C79U G117U  -4.93
16. C56G C97A G122A  -4.86
17. C56G C72G C82A C114U  -4.76
18. C56U U67C  -4.67
19. G57A A66U C115G  -4.64
20. C56A U92G C101G A121G  -4.49
21. C56A U109G  -4.29
22. C56G U109A  -4.28
23. G57A C82A C102A  -4.09
24. G57C C104U G110C U131A  -4.01
25. C56G C70G  -3.88
26. G57A G113C U133A  -3.86
27. C56G G57C U92G U96A U132A  -3.72
28. C56G C62U A105U U129C  -3.68
29. C56G C70A  -3.64
30. C56U C73G C115U  -3.6
31. C56U G60A  -3.37
32. G57A G93C U130G  -3.23
33. C56U G60U  -3.21
34. C56A U109C  -3.16
35. C56G G63C  -2.95
36. C56G G117C  -2.91
37. C56A U81A A83C  -2.85
38. G57A G63U U78C A95C C115A  -2.54
39. C56G A111U  -2.49
40. G57U A84U G110A  -2.32
41. C56G G117A  -2.32
42. C56G C72G  -2.27
43. G57A C73U G110A  -2.06
44. C56U C85A  -1.96
45. G57U C72A C88U  -1.77
46. G57U C62G  -1.62
47. C56G C70U C88U U106A U133A  -1.55
48. C56G A66U C88U C115A  -1.49
49. G57A G71U C89U  -1.34
50. C56U C72A C88U  -1.31
51. C56U C72U C79U C101A  -1.28
52. G57C C89U G120C  -1.28
53. C56G C64U C79A  -1.17
54. C56G C79A  -1.17
55. C56U U96A  -1.14
56. G57A U130A  -1.13
57. C56G C72U  -1.05
58. C56G A66U  -1.02
59. C56U A119U  -0.819
60. C56U U59A  -0.76
61. C56G C79A C115A U131A  -0.673
62. C56U U96G  -0.658
63. G57C G93A  -0.552
64. C56U C88A  -0.497
65. G57C U78C U87C C102A C124A  -0.477
66. C56A G120C A121U U131A  -0.425
67. G57A U59G  -0.399
68. C56U C62U  -0.378
69. G57A G58A  -0.357
70. C56G G69U A100U U130C  -0.344
71. C56A U130C  -0.155
72. C56A U78G  -0.153
73. C56U A90G C97U  -0.119
74. C56U U78C U106A G120A  0.24
75. C56U C115A  0.248
76. C56U C123A  0.593
77. C56G G63A G77U G120C  0.612
78. G57A A119G  0.755
79. C56U A74C A75U C124U  0.971
80. C56U C123U  1.04
81. C56U C123G  1.1
82. C56U G120U C124A  1.41
83. C56U G120C G122U  1.43
84. C56G U78G A121C  1.64
